This is an account of results in patent CN109485724A (FUZHOU MAIXIN BIOTECHNOLOGY DEV CO LTD, dated 2019).

The target in the experiment is T1, 重组Desmin蛋白 (人Desmin α螺旋杆状区第109位至第412位氨基酸片段 + 组氨酸标签, 大肠杆菌表达) (human, UniProt P17661 109-412).
T1 construct: range 109-412; Expressed in E. coli Rosetta from pET-28a(+) (EcoRI/HindIII), solubilised from inclusion bodies in 8 M urea and purified on Ni-NTA; also called 重组Desmin蛋白片段; 免疫原; not shown: histidine tag from vector pET28a(+)
Description: indirect ELISA on coated recombinant Desmin; affinity constant calculated from the antibody concentration at half of the plateau OD450.

T1 sequence (P17661 109-412): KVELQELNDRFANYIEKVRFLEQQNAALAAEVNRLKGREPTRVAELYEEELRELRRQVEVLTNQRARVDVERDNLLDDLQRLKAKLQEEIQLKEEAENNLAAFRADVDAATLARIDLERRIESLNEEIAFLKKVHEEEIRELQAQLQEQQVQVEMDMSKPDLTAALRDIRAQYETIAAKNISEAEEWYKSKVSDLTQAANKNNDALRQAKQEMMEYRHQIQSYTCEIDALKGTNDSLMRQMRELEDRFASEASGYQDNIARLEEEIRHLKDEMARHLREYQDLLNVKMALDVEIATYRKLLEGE

B1: 抗Desmin蛋白单克隆抗体(14G1C12) (antibody, V domains shown)
VH: QIQLVQSGPELKKPGETVKISCKASGYTFTNYGMNWVKQAPGKGLKWMGWINTNTGEPTYAEEFKGRFAFSLETSASTAYLQINNLKNEDTATYFCAREFSSWGQGTLVTVSA
VL: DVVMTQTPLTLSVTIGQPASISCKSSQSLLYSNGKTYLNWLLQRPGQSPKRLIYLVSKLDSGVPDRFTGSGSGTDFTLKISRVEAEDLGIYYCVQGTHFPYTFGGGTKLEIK
notes: also called Desmin单克隆抗体; 14G1C12的Desmin
With B1, the Ka was 6.82e+09 M⁻¹.
